One assay concerns HEPG2. In words: Monolayer assay, 96h treatment, HEPG2. Type of assay: cell-based, human. As to conditions: HEPG2, 96h treatment. As to the method:
(§1) Monolayer Assay Propidium Iodid (PI). Cells were harvested from exponential phase cultures, counted and depending on the cell line 3.000 to 20.000 cells were plated in 96-well flat-bottom microtiter plates After a 24 h recovery period to allow cells to resume exponential growth, 10 μl of culture medium (four control wells/plate) or culture medium with the test compound were added by a liquid handling robotic system and treatment continued for four days. Compounds were applied in half-log increments at 10 concentrations in duplicate. Three independent experiments were performed. Cells were then washed with 200 μl PBS to remove dead cells followed by addition of 200 μl of a solution containing 7 μg/ml propidium iodide (PI) and 0.1% (v/v) Triton X-100. After an incubation period of 1-2 h at room temperature, fluorescence (FU) was measured using the Cytofluor 4000 microplate reader (excitation λ=530 nm, emission λ=620 nm) to quantify the amount of attached viable cells. Concentrations required for 50% inhibition of cell growth (IC50) were calculated by non-linear regression (log[conc. of inhibitor]versus response (% T/C)) using the analysis software GraphPad Prism®, Prism 5 for windows, version 5.01 (GraphPad Software Inc., CA).
CROMOC36—in vitro activity Human hepatocellular carcinoma cell lines IC50 values of CROMOC36 and Sorafenib, 96h treatment. […]

In assay [1] the test system is IMR32 human neuroblastoma xenograft. Kind of assay: IMR32 human neuroblastoma xenograft model. Type of assay: in vivo, mice. To be noted: q14dx2. The source says:
FIG. 11: IMR32 s.c. implanted. Treatment on xenograft mice with advanced tumors (volume >50 mm^3). Variation in tumor volume expressed as percentage with respect to initial volume (day 0; designated as 100%). Final measurements for vehicle (PBS) and Doxorubicin groups were taken on day 42. For the remaining groups, final measurements were taken on day 63, the termination day of the experiment. Growth reduction compared to controls on day 42 (p<0.01).
The aim of this study was to assess the in vivo efficacy of CROMOC36 on a IMR32 human neuroblastoma xenograft model. CROMOC36 was administered subcutaneously (s.c.) at intervals of two weeks (q14dx2) at two different doses (32 mg/Kg) and also in combination with doxorubicin administered intravenously (i.v.) (32/kg CROMOC36+4+4 mg/Kg doxorubicin, s.c and i.v., q14dx2). Doxorubicin was also used alone as a reference compound (8 mg/kg, i.v., q14dx2). Vehicle was PBS.
Background: In xenograft studies the graft and the host belong to different species.

The test system of another assay is PATU8988T. In words: Propidium iodide monolayer assay, PATU8988T. To be noted: four days. Type of assay: cell-based, human. As to the method:
as §1, with “Concentrations required for 50% inhibition of cell growth (IC50) were calculated by non-linear regression (log[conc. of inhibitor]versus response (% T/C)) using the analysis software GraphPad Prism®, Prism 5 for windows, version 5.01 (GraphPad Software Inc., CA).” left out
(§2) CROMOC36—in vitro activity Human pancreatic carcinoma cell lines. […] Antitumor activity was assessed after four days of CROMOC36 treatment using a propidium iodide based monolayer proliferation assay. […]

Assay [2] has as its system human colon carcinoma with null p53 (HCT116 p53−/−) xenograft. Kind of assay: HCT116 p53-/- xenograft, CROMOC36 versus nuclease impaired CROMOC60. Type of assay: in vivo, mouse. As to conditions: s.c. 4 mg/kg on days 0, 1, 2, 3, 6, 7, 8, 9, 10, 20, 22, 24. As to the method:
FIG. 7: HCT116 p53−/− human colon carcinoma xenograft. Treatment on advanced tumors (volume >50 mm^3). Dose: CROMOC36 4 mg/kg; CROMOC60 4 mg/kg. Treatment: s.c. administration on day 0, 1, 2, 3, 6, 7, 8, 9, 10, 20, 22, 24.
A study was conducted to test the antitumor efficacy of CROMOC36 on an advanced human colon carcinoma with null p53 (HCT116 p53−/−) xenograft model and compare it to a vehicle or a nuclease impaired version CROMOC60 treatment group. CROMOC60 is no more catalytically active as a nuclease but is able to be transported to the nucleus of a cell. This study was also designed to proof that the active principle of the tumor growth inhibiting activity of CROMOC is the nuclease activity in vivo. CROMOC36 and CROMOC60 were both administered subcutaneously (s.c.) at 4 mg/kg dose on the days 0, 1, 2, 3, 6, 7, 8, 9, 10, 20, 22, 24. […] This also proofs that CROMOC36 can serve as a valid DNA DSB reagent.

A further assay concerns PAXF 546L. In words: Propidium iodide monolayer assay, PAXF 546L. To be noted: four days. Type of assay: cell-based, human. As to the method: as §1, with “Concentrations required for 50% inhibition of cell growth (IC50) were calculated by non-linear regression (log[conc. of inhibitor]versus response (% T/C)) using the analysis software GraphPad Prism®, Prism 5 for windows, version 5.01 (GraphPad Software Inc., CA).” left out
as §2

In assay [3] the test system is 80 different human tumor cell lines. In words: Monolayer SRB staining assay for 72 hours, 80 human tumor cell lines. Type of assay: cell-based. As to conditions: 55/80 cell lines, SRB 72 hours. As to the method:
Cells were harvested from exponential phase cultures, and depending on the cell line 10.000 to 30.000 cells were plated in 96-well flat-bottom microtiter plates. After a 24 h recovery period to allow cells to resume exponential growth, supernatant was discarded and 100 μl of culture medium (eight control wells/plate) or culture medium with the test compound were added by a liquid handling robotic system (Microlab® Starlet, Hamilton) and treatment continued for 72 hrs. Compounds were applied at 9 concentrations eight wells/concentration). At least three independent experiments were performed. For SRB staining, cells were fixed with SRB01 for 1h at 4° C. (final concentration of TCA=10%) washed with a plate washer (Hydroflex, Tecan©) for five times with H2O; and stained with 100 μl of SRB02 at room temperature for 10 min following 4 washes in SRB03 and finally 100 μl of developer solution SRB04 for 5 minutes with shaking. Optical density was assessed using a plate-reader (Sunrise, Tecan©) at 540 nm. […]
To analyze the cytostatic activity in different tumor cell lines, the in vitro activity of CROMOC36 was analyzed in 80 different human tumor cell lines representing the mayor tumor indications by the Monolayer Sulphorhodamine B (SRB) staining assay for 72 hours.
(In SRB staining, fixed cells bind dye roughly in proportion to their protein.)

The subject of assay [4] is Human hepatocellular carcinoma cell lines. In words: Monolayer assay, human hepatocellular carcinoma cell lines, 96h treatment (geomean of three lines). Format: cell-based. As to the method: as §1
CROMOC36—in vitro activity Human hepatocellular carcinoma cell lines IC50 values of CROMOC36 and Sorafenib, 96h treatment. […] The individual results for CROMOC36 are included in FIG. 24. […] The individual results for Sorafenib are included in (FIG. 24).

The next assay relates to MIAPACA2. Kind of assay: Propidium iodide monolayer assay, MIAPACA2. Type of assay: cell-based, human. To be noted: MIAPACA2, four days. As to the method:
as §1, with “Concentrations required for 50% inhibition of cell growth (IC50) were calculated by non-linear regression (log[conc. of inhibitor]versus response (% T/C)) using the analysis software GraphPad Prism®, Prism 5 for windows, version 5.01 (GraphPad Software Inc., CA).” left out
as §2

Assay [5] deals with lung cancer, ovarian cancer and neuroblastoma and colon cancer cells. Kind of assay: SRB assay for 96 hours, cancer cells. Format: cell-based. To be noted: SRB 96 hours, various cancer cells; read-out: IC50 range. As to the method:
Cells were harvested from exponential phase cultures, and depending on the cell line 10.000 to 30.000 cells were plated in 96-well flat-bottom microtiter plates. After a 24 h recovery period to allow cells to resume exponential growth, supernatant was discarded and 100 μl of culture medium (eight control wells/plate) or culture medium with the test compound were added by a liquid handling robotic system (Microlab® Starlet, Hamilton) and treatment continued for 72 hrs. Compounds were applied at 9 concentrations eight wells/concentration). At least three independent experiments were performed. For SRB staining, cells were fixed with SRB01 for 1h at 4° C. (final concentration of TCA=10%) washed with a plate washer (Hydroflex, Tecan©) for five times with H2O; and stained with 100 μl of SRB02 at room temperature for 10 min following 4 washes in SRB03 and finally 100 μl of developer solution SRB04 for 5 minutes with shaking. Optical density was assessed using a plate-reader (Sunrise, Tecan©) at 540 nm. Concentrations required for 50% inhibition of cell growth (IC50) were calculated by non-linear regression (log[conc. of inhibitor] versus response (% T/C)) using the analysis software GraphPad Prism®, Prism 5 for windows, version 5.01 (GraphPad Software Inc., CA). (SRB Buffers FIG. 25).

B1: CROMOC36: single chain PvuII endonuclease fused at its C-terminus to DDM36, PEGylated final product used in the Examples (protein)
chain: MSHPDLNKLLELWPHIQEYQDLALKHGINDIFQDNGGKLLQVLLITGLTVLPGREGNDAVDNAGQEYELKSINIDLTKGFSTHHHMNPVIIAKYRQVPWIFAIYRGIAIEAIYRLEPKDLEFYYDKWERKWYSDGHKDINNPKIPVKYVMEHGTKIYGSGGSGGSSHPDLNKLLELWPHIQEYQDLALKHGINDIFQDNGGKLLQVLLITGLTVLPGREGNDAVDNAGQEYELKSINIDLTKGFSTHHHMNPVIIAKYRQVPWIFAIYRGIAIEAIYRLEPKDLEFYYDKWERKWYSDGHKDINNPKIPVKYVMEHGTKIYGNSGSGKKKKKGKGSGLGSGKKKDPLGSGLGSGKKKKKGKGSGLGSGKKKDPLGST
modifications: PEGylated; peptide, CROMOC36
Turning to B1, the IC50 (commonly the midpoint of a concentration-inhibition curve) in the assay with HEPG2 was 13.7 nM; in the assay with PATU8988T it was 2.79 nM; in the assay on PAXF 546L, 6.49 nM; in [3], at most 100 nM; in assay [4] (three HCC cell lines, 96h treatment), 14.1 nM; with MIAPACA2, around 10 nM. The IC50 in assay [5] was 0.5 to 19 nM. Besides, the “tumor growth inhibition compared to controls” value in assay [1] (CROMOC36 32/kg s.c. + doxorubicin 4+4 mg/Kg i.v.) was found to be 89%. In addition, the “tumor growth inhibition (TGI) compared to controls” value in [1] (single agent, CROMOC36 32 mg/Kg s.c., doxorubicin 8 mg/kg i.v.) is 82%. Further, the “progression of HCT116 p53−/− human colon carcinoma as compared to vehicle control” value in assay [2] is given as “significantly inhibited”. Further, in assay [4] (geomean IC50 of three HCC cell lines), the “potency compared to Sorafenib” value is reported as “over 300 fold”.

These data come from patent US20250295796A1, “CELL PENETRATING POLYPEPTIDES (CPPS) AND THEIR USE IN HUMAN THERAPY” (RDP PHARMA AG, priority 2021, published 2025).
